# According to PMC2856799:
# What was measured:
# [1] = target: Insulin (Pekar and Frank 1972 preparation); experiment: Sedimentation equilibrium; settings: pH 7.0; 24.5 °C; ionic strength 0.1; not stated (pH 7.0); scale: log10; cited from earlier work
# Insulin (zinc-free) = Insulin (zinc-free) (UniProt P01317); experiment: Composition-gradient static light scattering; settings: pH 10.0, 25 °C, 0.095 M NaCl, 5.3 mM glycine, 3.2 mM NaOH, scale: log10
# Chain of UniProt P01317 (P01317 whole entry): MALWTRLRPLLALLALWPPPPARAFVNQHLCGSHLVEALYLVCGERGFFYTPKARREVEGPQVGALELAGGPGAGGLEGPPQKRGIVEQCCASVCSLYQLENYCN
log10(Ka) (enhanced isodesmic; monomer addition to dimer and higher oligomers) (Insulin (zinc-free)),Substance,log10(K6a) (stepwise hexamer addition) [1],log10(K12) (monomer-dimer) [1],log10(K26) (3 dimers -> hexamer) [1],log10(Ka) (isodesmic) [1]
,Insulin (Pekar and Frank 1972 preparation),3.69,5.64,8.36,4.43
3.82,Insulin (zinc-free),,,,
